The experiment deals with mature recombinant human cathepsin O2 (human) (UniProt P43235). Description: cell-based or functional assay.
mature recombinant human cathepsin O2 (human), sequence (P43235 115-329): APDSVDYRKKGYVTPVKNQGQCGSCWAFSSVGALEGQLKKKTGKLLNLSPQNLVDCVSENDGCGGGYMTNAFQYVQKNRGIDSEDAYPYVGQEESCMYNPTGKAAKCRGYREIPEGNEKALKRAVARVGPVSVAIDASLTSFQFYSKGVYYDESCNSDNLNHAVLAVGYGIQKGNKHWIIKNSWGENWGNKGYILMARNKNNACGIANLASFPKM

With “chicken cystatin (from UniProt P01038 24-139)”, the % inhibition (of cathepsin O2 activity, fluorimetric Z-FR-MCA assay, 0.1 µM inhibitor) is 100%.

For the origin of these results see US6544767.
